The source of these data is US7378087.

In assay [1] the target is H-2K^b MHC class I molecule (mouse) (UniProt P01901). The experiment in a line: FACS on RMA cells; IFN +, peptide -, hβ2m -.
Assay [2] shares this target. Put plainly: FACS on CMT.64 cells; IFN -, peptide +, hβ2m +.
Assay [3] shares this target. Put plainly: FACS on RMA cells; IFN -, peptide +, hβ2m +.
The target is the same in assay [4]. The experiment in a line: FACS on RMA cells; IFN +, peptide +, hβ2m +.
Assay [5] has the same target. The experiment in a line: FACS on RMA-S cells; IFN +, peptide -, hβ2m +.
Assay [6] shares this target. The experiment in a line: FACS on RMA-S cells; IFN +, peptide +, hβ2m -.
The target is the same in assay [7]. Put plainly: FACS on CMT.64 cells; IFN * (so in the source), peptide +, hβ2m +.
The target is the same in assay [8]. Put plainly: FACS on RMA-S cells; IFN +, peptide +, hβ2m +.
Assay [9] has the same target. Put plainly: FACS on CMT.64 cells; IFN +, peptide -, hβ2m -.
Assay [10] shares this target. The experiment in a line: FACS on RMA-S cells; IFN +, peptide -, hβ2m -.
For assay [11] the target is unchanged. The experiment in a line: FACS on RMA cells; IFN +, peptide -, hβ2m +.
For assay [12] the target is unchanged. The experiment in a line: FACS on RMA cells; IFN -, peptide -, hβ2m -.
Assay [13] shares this target. Put plainly: FACS on RMA-S cells; IFN -, peptide -, hβ2m -.
The target is the same in assay [14]. Put plainly: FACS on CMT.64 cells; IFN -, peptide -, hβ2m -.
The target is the same in assay [15]. The experiment in a line: FACS on RMA-S cells; IFN -, peptide +, hβ2m +.
The target is the same in assay [16]. Put plainly: FACS on RMA cells; IFN +, peptide +, hβ2m -.

UniProt P01901, sequence (P01901 22-305 limits assumed): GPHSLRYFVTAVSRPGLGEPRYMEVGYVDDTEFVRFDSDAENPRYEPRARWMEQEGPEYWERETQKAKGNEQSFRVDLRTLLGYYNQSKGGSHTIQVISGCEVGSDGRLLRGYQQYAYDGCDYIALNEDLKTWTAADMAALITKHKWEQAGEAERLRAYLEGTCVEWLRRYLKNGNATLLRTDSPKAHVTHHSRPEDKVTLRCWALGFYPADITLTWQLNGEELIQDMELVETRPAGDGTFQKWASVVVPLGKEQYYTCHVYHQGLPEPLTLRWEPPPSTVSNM

For “142-23.3 anti H-2 K^b monoclonal antibody”, the fluorescence units (arbitrary fluorescence units) amounted to 346 in assay [1]; 8 in assay [2]; 242 in assay [3]; 780 in [4]; 10 in [5]; 10 in assay [6]. Besides, the fluorescence units (arbitrary fluorescence units) in assay [7] came out at 35; in [8], 41; in assay [9], 26; in assay [10], 12; in [11], 438; in assay [12] it was 164. For the same substance, the fluorescence units (arbitrary fluorescence units) in assay [13] stood at 12; in [14], 5; in assay [15], 70; in [16], 606.
